Results published in the nanobody polyreactivity screen of Harvey et al. (2022).

Assay: yeast display, Sf9 membrane polyspecificity reagent, FACS + sequencing; frameworks hold sequencing errors
Summary of the method: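 Genes from sorted yeast were amplified by colony PCR, read by MiSeq 2 × 250 sequencing and filtered on CDR length. These cells carried a synthetic nanobody library in Saccharomyces cerevisiae BJ5465 and were sorted by FACS into low and high (top ~1%) gates on anti-HA and streptavidin fluorescence. Polyreactivity is labelled according to the gate of origin.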

Sequence | polyreactivity (PSR sort gate)
QVQLVESGGGLVQAGGSLRLSCAASGNIFTSNAMGWYRQAPGKERELVAAITSGGSTYYADSLKGRFTISRDNAKNTVYLQMISLKPEDTAVYYCATLRRPHLRPYYYWGQGTQVTVSS | high polyreactivity
QVQLVESGGGLVQAGGSLRLSCAASGSTFQTYAMGWYRQAPGKERELVASINWRSGSTYYADSVKGRFTISRDNAKNTVYLQMNSLKPEDTAVYSCAAELDFSPGYYYLYDYWGQGTQVTVSS | low polyreactivity
QVQLVESGGGLVQAGGSLRLSCAASGRTFYVYSMGWYRQAPGKERELVAAITASGGSTYYADSVKGRFTLSRDNAKNTVYLQMHSLKPEDTAVYYCAARVVTRVRGVGYNYWGHGTQVTVSS | high polyreactivity
QVQLVESGGGLVQAGGSLRLSCAASGRTFFWYVMGWYRKAPGKERELVATISYGGITYYADSVKGRFTISRDNAKNTVYLQMNSLKPEDTALYYCAAKPSRSLYYYWGQGTQVTVSS | high polyreactivity
QVQLVESGGGLVQAGGSLRLSCAASGSTFWLYTMGCYRQAPVKERELVAAISTRGGSTYYADSVKGRFTISRDNAKNTVYVQMHSLKPEDTAVYYCAAYPTYGEYDYWGQGSQVTVSS | high polyreactivity
QVQLVESGGGVVQAGGSLRLSCAASGFIFNAYAMGSYRQAPGNERELVAAINTSGGRTNYADSVKGRFTISRDNAKNTVYLQMNSLKPEDTAVYYCAARNRFGGNYWGQGTQVTVSS | high polyreactivity
QDQRVDSGRGLVQAGGSLRLSCAASGSIFDFYARGWNRPAPGKERELVATISSAGSTYYAESVKGRFTISRDNAKNTVYLQMNSLKPEDTALYYCARGYIRSYWWYHSDRGDFWGQGTQVTVSS | low polyreactivity
QVQLVESGGGLVQAGGSLRLSCAASGFIFTLYAMGWYRQAPGKERELVADISFNSGNTYYADSVKGRFTISRDNAKNTVYLQMNSLIPEDTAVYYCAVDLYFVGDVYEGYLGGDYLGQGTQVTVSS | low polyreactivity
QVHLVETGGGLVQAGGSLRLSCAASGSTFSFNAMGWYRQAPGKERELVAAISTSGGDTYYADSVKGRFTISRDNAKNTVYLQMNSLKPEDTAVYYCAAEYQVPGGSWMDYWGQGTQVTVSS | high polyreactivity
QVQLVESGGGLVQAGGSLRLSCAASGSIFQHYAMGWYRQAPGKERELVARISYSGGNTYYADSVKGRFTISRDNAKNTVYLQMNSLKPEDTAVYYCAATRSHYPYRSGGDYWGQGTQVTVSS | low polyreactivity
QLQLVESGGGLVQAGGSLRLSCAASGNTFYQYAMGWYRQAPGKERELVAGIRYNGGSTYYADSVKGRFTISRDNAKNTVDLQMNSLKPEDTAVYYCATKGYTGYAYRYGYWGQGTQVTVSS | high polyreactivity
QVQLVESGGGLVQAGGSLRLSCAASGSTFYSNAMGWYRQAPGKERELVAAINRGSSTYYADSVKGRFTISRDNAKNTVYLQMNSLKPDDTAVYYCAVDYFWYEMDYWGQGTQVTVSS | low polyreactivity
QVQHVESGGGLVQAGGSLRLSCAASGSIFDRNAMGRYRQAPGKERELVAAISGGDSTYYADSVKGRFTISRDNAKNTVYLQMNSLKPEDTAVYYCNVDFKTEYDYWGQGTQVTVSS | low polyreactivity
QVQLVESGGGLVQAGGSLRLSCAASGRTFIVYPMGWYRQAPGKERELVAAISKRGGSTYYADSVKGRFTISRDNAKNPVYLQMNRLKPDDTAVYYCNAALSVELGYAYWGQGTQVTVSS | high polyreactivity
QVQLVESGGCLVQAGGSLRLSCAASGRIFHQNTMGWYRQAPGKERELVAAISATGGGTNYADSVKGRFTISRDNAKNTVYLQMNSLKPEDTAVYYCAVRPKTSWYSWYYWGQGTQVTVSS | low polyreactivity
QVQLVESGGGLVQAGGSLRLSCAASGSIFRSYAMGWYRQAPGKERELDAAISRRGSSTYYADSVKGRFTISRDIAKNTVYLQMISLKPEDSAVYYCNRVRYPRVDYWGQGTQVTVSS | high polyreactivity
QVQLVESGGGLVQAGGSLRLSCAASGLTFFPNVMGWYRQAPGKERELVAAISRSGDRTFYADSVKGRFTISRDNAKNTVYLQMNSLKPEDTAVYYCAADSGSSRSRRGYEYWGQGTQVTVSS | high polyreactivity
QVQLVESGGGLVQAGGSLRLSCAASGITIVNYVMGWYRQAPGKERELVAAISLGGGTYYADSVKGRFTISRDNAKNTVYLQMNSLKADDTAVYYGNASYGGLAFYIGVYVTGYDYWRQGTQVTVSS | low polyreactivity
QVQLVESGGGLVQAGGSLRLSCAASGSIFNRYAMGWYRQAPGKERELVAAIRSGDNTNYADSVKGRFTISRDNAKNTVYLQMNSLKPEDTAVYYCNARYGGYRARYTYNYWGQGTQVTVSS | high polyreactivity
QVQLVESGGGLVQAGGSLRLSCAASGLTFTGYAMGWYRQATGKERELVASISRSGASTFYADSVKGRFTISRDNAKNTVYLQMNSLKPEDTAVYYCAAVPGWLTSRYYYWGQGTQVTVSS | high polyreactivity
QVQLVESGGGLVQAGGSLRLSCAASGLTIWANTKGWYRQAPGKERELVAAISLSDGSTYYADSVKGRFTISRDNAKNTVYVQMNSLKPEDTAVYYCAARVQHYLATDDYWGQGTQVTVSS | low polyreactivity
QVQLVESGGGLVQAGGRLRLSCAASGSIFQPYAMGWSRQAPGKERELVAAINGRGGSTHYADSVKGRFTISRDNAKNTVYLQMNSLKPEDTAVYYWNRPKWYDGDYWGQGTQVTVSS | high polyreactivity

Sequence | polyreactivity (PSR sort gate)
QVQLVESGGGLVQAGGSLRLSCAASGSILGRYAMGWYRQAPGKERELVAAISYRGGSTYYADSVKGRFTISRDNAKNTVYLQMNSLKPEDTAVYYCATRDPAFYRRYDYWGQGTQVTVSS | high polyreactivity
QVQLVESGGGLVQAGGSLRLSSAASGSIFSDYAMGWYRQAPGKERELVAAISGTGGGTYYADSVKGRFTISRDNAKNTVYLQMNSLKPEDTAVYYCAADYVFAWWGDYYWGQGTQVTVSS | high polyreactivity
QGQLVESGRGLVQAGGSLRLSCAASGRIFVIYDIGWYRQAPGKEREFVAAISWRSGSTYYADSVKGRFTISRDNAKNTVYLQMNSLKPDDTAVYDCNKDYHVRYYYWGQGTQVTVSS | low polyreactivity
QVQLVESGGGLVQAGGSLRLRCAASGSTFQRYAMGWYRQAPGKERELVAAITWSGGSTKYADSVKGRFTISRDNAKTTVYLQMNCLKPEDTAVYYCARTYLSSRWGQGTQVTVSS | low polyreactivity
QVQLQETGGGLVQAGGILGCAASGNISTRSEMGWYRQATGKEREFVATINSGGITNYADSVKGRFTISRDNAKNTVYLRMNSLKPEDTAVYYRAVYGYFSDPYDYWGQGTQVTVSS | low polyreactivity
QVQLVESGGGLVQAGGSLRLSCAASGITFSFYAMGWYRQAPGKERELVAAISWNGDSTYYADSVKGRFTISRDNAKNTVYLQMNSLKPEDTAVYYCNAEFVAWYYYEDQDGDYWGQGTQVTVSS | high polyreactivity
QVLLVESGGGLVQAGGSLRISCAASVRIVKSYAMGWYRQAPGKESELVAAISRGGRTNYADSVKGRFTISRDNAKNTVYLQMNSLKPEDTAVYYCAARFITPYDHYGYWGQGTQVTVSA | high polyreactivity
QVQLVESGGGLVQAGGSLRLSCAASGNTLDAYTLGWDRQAPGKERELVAAISRGGTRTYYADSLKGRFTISRDNAKNTVYLQMKSLKPEDTAVYSCAAKVGYTHEYGRYDYWGQGTQVTVSS | high polyreactivity
QVQLVESGGGLVQAGGSHRLSCAASGRSFKYYAMGWYRQAPGKERELVARISPSSGNTYYADSVKGRFTISRDNAKNTVYLQMNSLKPEDTGVYVCATVPHYNGFNYWGQGTQVTVSS | high polyreactivity
QVQLVESGGGLVQAGGSLRLSCAASGRIFDTYAMGWYRQAPGKERELVAAITRRGGSTYYADSVKGRFTISRDNAKNTVYLQMNSLKPEDTAVYYCAKSLVNRHYDYWGQGTQVTVSS | low polyreactivity
QVQLVESGGGLVQAGGSLRLSCAASGSIFPSNAMGWYRQAPGKERELVAAINRDGITNYADSVKGRFTISRDNAKNTVYLQMNSLKPEDTAVYYCAAEFAWQWWEYGYWGQGTQVTVSS | low polyreactivity
QVQLVESGGGLVQAGGSLRLSCAASGSTFKANAMGWYRQAPGKERELVASIRFSAGSTYYADSVKGRFTISRDNAKNTVYLQMNSLKPEDTAVYYCAAGRHVLKRRYDYWGQGTQVTVSS | low polyreactivity
QLQLVDSGRGLVQAGGSLRLSSAASGSIFVTNGMGWYRQAPGKERELVAVISWGGGNTYYADSVKGRFTISRDNAKNTVYLQMNNLKPEDTAVYYCAVELYWDYYFTYDYWGQGTQVTVSS | low polyreactivity
QVQLVESGGGLDQAGGSLRLSCAASGYTLGDYAMGWYRQAPGKERELVAVITRNGGRTYYADSVKGRFTISRDNAKNTVFLQMNSLKPEDTAVYYCNRDTSIRDYNYWGQGTQVTVSS | high polyreactivity
QVQLVESGGGLVQAGGSLRLSCAASGRIFYYYAMGWYRQAPGKERELVAAISGGGGSTYYADSVKGRFTISRDNAKNTVYLQMNSLKPEDTAVYYCAAEGAKDYTVSYDYWGQGTQVTVSS | high polyreactivity
QVQLVESGGGLVQAGGSLRLSCAASGRIIYYAMGWYRQAPGKERELVAAITRNGGTYADSVKGRFTISRDNAKNTVYLQMHRLKPEDTAVYYCNADPDFGDDYWGQGTQVTVSS | low polyreactivity
QDQLVESVGGLVQAGGSLRLSCAASGGTFGPNAMGWYRQAPGKERELVAAISASGGITYYADSVKGRFTISRDNAKNTVYLQMNSLKPEDTAVYYCAAAITWIYSQAAFKIVQYDYWGQGTQVTVSS | low polyreactivity
QVQLVESGGGLVQAGGSLRLSCAASGFTFYTYDMGWYRQAPGKERALVAAITSGVSTNYADSVKGRFTISRDNAKNTVYLQMNSLKPEDTAVYYCNKDVRPAYRWYDYWGQDTQVTVSS | low polyreactivity
QVQLVESGGGLVQAGGSLRLSCAASGSTFHKNAMGWYRQAPGKERELVAGITKRGGSTYYADSVKGRFTISRDNAKNTVYLQMNSLKPEDTAVYYCNADFPVGRTEYDYWGQGTQVTVSS | low polyreactivity
QVQLVESGGGLVQAGGSLRLSCAASGSTLEPNAMGWYRQAPGKERELVAAITIGGSTYYADSVKGRFTISRDNAKNTVYLQMNSLKPEDTSVYYCARRVSRYSWRNYWGQGTQVTVSS | high polyreactivity
QVQLGESGGGLVQAGGSLRLSCAASGFTFVHNAMGWYRQAPGKERELVAAISSSGGRTYYADSVKGRFTISRDNAKNTVYLQMNSLKPDDTAVYYCATVNRYGPSYGYWGQGTHVTVSS | high polyreactivity
